According to US20220002427A1 (ENGMAB SARL, published 2022):
Several values for one entry are separate records, joined by “and”; a condition that tells them apart may be missing. Identical values can stand only once.

What was measured:
human BCMA on cells [1] = molecular target: T1, human BCMA on cells (human, UniProt Q02223 1-184); experiment: cell-based or functional assay
T1 sequence (looked up): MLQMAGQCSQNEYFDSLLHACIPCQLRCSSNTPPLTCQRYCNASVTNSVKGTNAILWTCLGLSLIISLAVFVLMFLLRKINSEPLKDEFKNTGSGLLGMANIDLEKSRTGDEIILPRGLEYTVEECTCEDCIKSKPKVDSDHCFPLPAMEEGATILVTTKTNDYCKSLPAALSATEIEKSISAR

human BCMA on cells [2] = molecular target: T1, human BCMA on cells; experiment: cell-based or functional assay; remark: listed apart in the source
human BCMA on cells [3] = molecular target: T1, human BCMA on cells; experiment: cell-based or functional assay; remark: listed apart in the source
human BCMA on cells [4] = molecular target: T1, human BCMA on cells; experiment: cell-based or functional assay; remark: listed apart in the source
human BCMA on cells [5] = molecular target: T1, human BCMA on cells; experiment: cell-based or functional assay; remark: listed apart in the source
human BCMA on cells [6] = molecular target: T1, human BCMA on cells; experiment: flow cytometry on H929 multiple myeloma cells, PE anti-human Fc F(ab')2 detection; estimated EC50
Experimental: (§1) Briefly, cultured cells are harvested, counted and cell viability was evaluated using ViCell. Viable cells are then adjusted to 2×10⁶ cells per ml in BSA-containing FACS Stain Buffer (BD Biosciences). 100 μl of this cell suspension were further aliquoted per well into a round-bottom 96-well plate and incubated with 30 μl of the anti-BCMA antibodies or corresponding IgG control for 30 min at 4° c. All Anti-BCMA/anti-CD3 TCB antibodies (and TCB controls) were titrated and analyzed in final concentration range between 1-300 nM. Cells were then centrifuged (5 min, 350×g), washed with 120 μl/well FACS Stain Buffer (BD Biosciences), resuspended and incubated for an additional 30 min at 4° C. with fluorochrome-conjugated PE-conjugated AffiniPure F(ab′)2 Fragment goat anti-human IgG Fc Fragment Specific (Jackson Immuno Research Lab; 109-116-170). Cells were then washed twice with Stain Buffer (BD Biosciences), fixed using 100 ul BD Fixation buffer per well (#BD Biosciences, 554655) at 4° C. for 20 min, resuspended in 120 μl FACS buffer and analyzed using BD FACS CantoII.

human BCMA on cells [7] = molecular target: T1, human BCMA on cells; experiment: flow cytometry on L363 multiple myeloma cells, PE anti-human Fc F(ab')2 detection; estimated EC50
Experimental: as §1

B1: 22-TCBcv (bispecific antibody, human IgG1, kappa, L234A L235A)
heavy 1: not shown
heavy 2: EVQLLESGGGLVQPGGSLRLSCAASGFTFSDNAMGWVRQAPGKGLEWVSAISGPGSSTYYADSVKGRFTISRDNSKNTLYLQMNSLRAEDTAVYYCAKVLGWFDYWGQGTLVTVSSASTKGPSVFPLAPSSKSTSGGTAALGCLVEDYFPEPVTVSWNSGALTSGVHTFPAVLQSSGLYSLSSVVTVPSSSLGTQTYICNVNHKPSNTKVDEKVEPKSCDKTHTCPPCPAPEAAGGPSVFLFPPKPKDTLMISRTPEVTCVVVDVSHEDPEVKFNWYVDGVEVHNAKTKPREEQYNSTYRVVSVLTVLHQDWLNGKEYKCKVSNKALGAPIEKTISKAKGQPREPQVCTLPPSRDELTKNQVSLSCAVKGFYPSDIAVEWESNGQPENNYKTTPPVLDSDGSFFLVSKLTVDKSRWQQGNVFSCSVMHEALHNHYTQKSLSLSPGK
light 1: EIVLTQSPGTLSLSPGERATLSCRASQSVSSYYLAWYQQKPGQAPRLLISGAGSRATGIPDRFSGSGSGTDFTLTISRLEPEDFAVYYCQQYGYPPDFTFGQGTKVEIKRTVAAPSVFIFPPSDRKLKSGTASVVCLLNNFYPREAKVQWKVDNALQSGNSQESVTEQDSKDSTYSLSSTLTLSKADYEKHKVYACEVTHQGLSSPVTKSFNRGEC
light 2: EVQLLESGGGLVQPGGSLRLSCAASGFTFSTYAMNWVRQAPGKGLEWVSRIRSKYNNYATYYADSVKGRFTISRDDSKNTLYLQMNSLRAEDTAVYYCVRHGNFGNSYVSWFAYWGQGTLVTVSSASVAAPSVFIFPPSDEQLKSGTASVVCLLNNFYPREAKVQWKVDNALQSGNSQESVTEQDSKDSTYSLSSTLTLSKADYEKHKVYACEVTHQGLSSPVTKSFNRGEC
notes: also called 22-TCVcv; anti-BCMA/anti-CD3 T cell bispecific antibody of Mab22
B1 was tested, and the “EC50 of redirected T-cell killing of RPMI-8226 cells (LDH release), Donor 2” value (human BCMA on cells [1]) was 0.0476 nM, the “EC50 of redirected T-cell killing of RPMI-8226 cells (LDH release), Donor 3” value (human BCMA on cells [1]) was 0.0076 nM and the “EC50 of redirected T-cell killing of RPMI-8226 cells (LDH release), Donor 4” value (human BCMA on cells [1]) was 0.0032 nM. For the same binder, the “EC50 of redirected T-cell killing of RPMI-8226 cells (LDH release), Donor 5” value (human BCMA on cells [1]) was 0.0055 nM, the “Lysis of JJN-3 cells (%) at 0.1 pM TCB, Experiment 2” value (human BCMA on cells [2]) was 36.5% and the “Lysis of JJN-3 cells (%) at 1 pM TCB, Experiment 1” value (human BCMA on cells [2]) was -4.29%. For the same binder, the “Lysis of JJN-3 cells (%) at 1 pM TCB, Experiment 2” value (human BCMA on cells [2]) was 24.4%, the “Lysis of JJN-3 cells (%) at 10 pM TCB, Experiment 1” value (human BCMA on cells [2]) was 73.6% and the “Lysis of JJN-3 cells (%) at 10 pM TCB, Experiment 2” value (human BCMA on cells [2]) was 41.7%. For the same binder, the “Lysis of JJN-3 cells (%) at 100 pM TCB, Experiment 1” value (human BCMA on cells [2]) was 56.3%, the “Lysis of JJN-3 cells (%) at 100 pM TCB, Experiment 2” value (human BCMA on cells [2]) was 53% and the “Lysis of JJN-3 cells (%) at 1000 pM TCB, Experiment 1” value (human BCMA on cells [2]) was 90.5%. For the same binder, the “Lysis of JJN-3 cells (%) at 1000 pM TCB, Experiment 2” value (human BCMA on cells [2]) was 94.1%, the “Lysis of JJN-3 cells (%) at 10000 pM TCB, Experiment 1” value (human BCMA on cells [2]) was 88% and the “Lysis of JJN-3 cells (%) at 10000 pM TCB, Experiment 2” value (human BCMA on cells [2]) was 91.2%. The “EC50 of redirected T-cell killing of L363 cells (LDH release), Donor 1” value (human BCMA on cells [3]) was 0.0975 nM, the “EC50 of redirected T-cell killing of L363 cells (LDH release), Donor 2” value (human BCMA on cells [3]) was 0.0277 nM and the “EC50 of redirected T-cell killing of L363 cells (LDH release), Donor 3” value (human BCMA on cells [3]) was 0.0165 nM. For the same binder, the “EC50 of redirected T-cell killing of L363 cells (LDH release), Donor 4” value (human BCMA on cells [3]) was 0.0146 nM, the “EC50 of redirected T-cell killing of L363 cells (LDH release), Donor 5” value (human BCMA on cells [3]) was 0.056 nM and the “EC50 of redirected T-cell killing of H929 cells (LDH release), Donor 1” value (human BCMA on cells [4]) was 0.0532 nM. For the same binder, the “EC50 of redirected T-cell killing of H929 cells (LDH release), Donor 3” value (human BCMA on cells [4]) was 0.0422 nM, the “EC50 of redirected T-cell killing of H929 cells (LDH release), Donor 4” value (human BCMA on cells [4]) was 0.0232 nM and the “EC50 of redirected T-cell killing of H929 cells (LDH release), Donor 5” value (human BCMA on cells [4]) was 0.0289 nM. The “Annexin-V positive JJN-3 cells (%) at 0.1 pM TCB, Experiment 2” value (human BCMA on cells [5]) was 14.8%, the “Annexin-V positive JJN-3 cells (%) at 1 pM TCB, Experiment 1” value (human BCMA on cells [5]) was 9.3% and the “Annexin-V positive JJN-3 cells (%) at 1 pM TCB, Experiment 2” value (human BCMA on cells [5]) was 15%. For the same binder, the “Annexin-V positive JJN-3 cells (%) at 10 pM TCB, Experiment 1” value (human BCMA on cells [5]) was 13.3%, the “Annexin-V positive JJN-3 cells (%) at 10 pM TCB, Experiment 2” value (human BCMA on cells [5]) was 15.9% and the “Annexin-V positive JJN-3 cells (%) at 100 pM TCB, Experiment 1” value (human BCMA on cells [5]) was 12.5%. For the same binder, the “Annexin-V positive JJN-3 cells (%) at 100 pM TCB, Experiment 2” value (human BCMA on cells [5]) was 18.4%, the “Annexin-V positive JJN-3 cells (%) at 1000 pM TCB, Experiment 1” value (human BCMA on cells [5]) was 26.1% and the “Annexin-V positive JJN-3 cells (%) at 1000 pM TCB, Experiment 2” value (human BCMA on cells [5]) was 27%. For the same binder, the “Annexin-V positive JJN-3 cells (%) at 10000 pM TCB, Experiment 1” value (human BCMA on cells [5]) was 22.9%, the “Annexin-V positive JJN-3 cells (%) at 10000 pM TCB, Experiment 2” value (human BCMA on cells [5]) was 29.7% and the EC50 (human BCMA on cells [6]) was 7.9 nM and 1.14 µg/mL. For the same binder, the EC50 (human BCMA on cells [7]) was 30 nM and 4.33 µg/mL.
